{"source": "IntAct's records for PubMed 23353685", "parents": {"B1": {"name": "Beta-arrestin-1 (Homo sapiens), P49407 (parent)", "chain": "MGDKGTRVFKKASPNGKLTVYLGKRDFVDHIDLVDPVDGVVLVDPEYLKERRVYVTLTCAFRYGREDLDVLGLTFRKDLFVANVQSFPPAPEDKKPLTRLQERLIKKLGEHAYPFTFEIPPNLPCSVTLQPGPEDTGKACGVDYEVKAFCAENLEEKIHKRNSVRLVIRKVQYAPERPGPQPTAETTRQFLMSDKPLHLEASLDKEIYYHGEPISVNVHVTNNTNKTVKKIKISVRQYADICLFNTAQYKCPVAMEEADDTVAPSSTFCKVYTLTPFLANNREKRGLALDGKLKHEDTNLASSTLLREGANREILGIIVSYKVKVKLVVSRGGLLGDLASSDVAVELPFTLMHPKPKEEPPHREVPENETPVDTNLIELDTNDDDIVFEDFARQRLKGMKDDKEEEEDGTGSPQLNNR"}}}
{"variants_of": "B1", "conditions": "with gnas1_human GNAS"}
{"variant": "MGDKGTRVFKKASPNGKLTVYLGKRDFVDHIDKVDPVDGVVLVDPEYLKERRVYVTLTCAFRYGREDLDVLGLTFRKDLFVANVQSFPPAPEDKKPLTRLQERLIKKLGEHAYPFTFEIPPNLPCSVTLQPGPEDTGKACGVDYEVKAFCAENLEEKIHKRNSVRLVIRKVQYAPERPGPQPTAETTRQFLMSDKPLHLEASLDKEIYYHGEPISVNVHVTNNTNKTVKKIKISVRQYADICLFNTAQYKCPVAMEEADDTVAPSSTFCKVYTLTPFLANNREKRGLALDGKLKHEDTNLASSTLLREGANREILGIIVSYKVKVKLVVSRGGLLGDLASSDVAVELPFTLMHPKPKEEPPHREVPENETPVDTNLIELDTNDDDIVFEDFARQRLKGMKDDKEEEEDGTGSPQLNNR", "note": "[L33K]", "effect of a mutation on the interaction": "decreasing interaction"}
